From US20250333467A1 (TECTONIC OPERATING, published 2025)
Values joined by “and” are separate entries in the source; they are usually repeats but may differ in a detail not shown here. Identical values can stand only once. Like-named read-outs stand apart in the source and are kept apart here.

T1: human RXFP1 (human, UniProt Q9HBX9 1-757)
T1 sequence (looked up): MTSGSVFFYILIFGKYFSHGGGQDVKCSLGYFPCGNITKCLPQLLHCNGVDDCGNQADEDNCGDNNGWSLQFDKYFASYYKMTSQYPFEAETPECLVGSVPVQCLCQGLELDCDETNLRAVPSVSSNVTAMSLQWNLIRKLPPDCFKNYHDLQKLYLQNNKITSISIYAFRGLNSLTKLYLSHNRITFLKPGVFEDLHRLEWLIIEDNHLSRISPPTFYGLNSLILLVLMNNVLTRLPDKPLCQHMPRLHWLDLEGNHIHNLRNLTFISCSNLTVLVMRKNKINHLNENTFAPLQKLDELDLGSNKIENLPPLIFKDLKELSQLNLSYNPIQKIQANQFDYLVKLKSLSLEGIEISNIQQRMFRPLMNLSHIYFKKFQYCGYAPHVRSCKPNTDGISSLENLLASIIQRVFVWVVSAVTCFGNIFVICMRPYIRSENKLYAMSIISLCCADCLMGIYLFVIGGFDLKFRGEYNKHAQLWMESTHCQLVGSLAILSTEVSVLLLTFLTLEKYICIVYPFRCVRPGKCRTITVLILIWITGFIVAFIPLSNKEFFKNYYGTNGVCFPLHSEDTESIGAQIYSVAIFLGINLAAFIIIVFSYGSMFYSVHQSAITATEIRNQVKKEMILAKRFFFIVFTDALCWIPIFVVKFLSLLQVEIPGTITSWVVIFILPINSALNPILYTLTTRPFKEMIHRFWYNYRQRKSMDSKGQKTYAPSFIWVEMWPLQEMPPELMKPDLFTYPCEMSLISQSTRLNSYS

T2: rat RXFP1 (rat, UniProt Q6R6I6 1-758)
T2 sequence (looked up): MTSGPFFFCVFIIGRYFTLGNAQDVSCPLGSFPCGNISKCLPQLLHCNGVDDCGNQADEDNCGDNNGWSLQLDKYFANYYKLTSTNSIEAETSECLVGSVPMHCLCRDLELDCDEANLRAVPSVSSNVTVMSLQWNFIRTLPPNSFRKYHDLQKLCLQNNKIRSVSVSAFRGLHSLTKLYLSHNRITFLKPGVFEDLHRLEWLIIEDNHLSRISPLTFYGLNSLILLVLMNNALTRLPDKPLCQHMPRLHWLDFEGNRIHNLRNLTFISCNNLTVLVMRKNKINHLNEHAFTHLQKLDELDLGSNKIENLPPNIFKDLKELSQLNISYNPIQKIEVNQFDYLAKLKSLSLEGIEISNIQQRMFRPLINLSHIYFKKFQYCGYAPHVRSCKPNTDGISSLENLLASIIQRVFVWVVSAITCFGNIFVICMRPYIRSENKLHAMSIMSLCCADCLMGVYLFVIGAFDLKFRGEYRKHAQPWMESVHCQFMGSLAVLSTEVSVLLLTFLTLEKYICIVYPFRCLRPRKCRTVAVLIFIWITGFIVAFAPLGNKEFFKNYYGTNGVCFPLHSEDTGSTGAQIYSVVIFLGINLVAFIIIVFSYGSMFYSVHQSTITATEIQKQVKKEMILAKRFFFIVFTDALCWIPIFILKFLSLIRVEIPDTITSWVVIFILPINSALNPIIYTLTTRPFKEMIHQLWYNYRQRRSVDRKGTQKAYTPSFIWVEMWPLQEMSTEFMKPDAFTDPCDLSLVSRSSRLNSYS

T3: cynomolgus monkey RXFP1 (cynomolgus monkey, UniProt H9ERA2 1-757 (rhesus entry))
T3 sequence: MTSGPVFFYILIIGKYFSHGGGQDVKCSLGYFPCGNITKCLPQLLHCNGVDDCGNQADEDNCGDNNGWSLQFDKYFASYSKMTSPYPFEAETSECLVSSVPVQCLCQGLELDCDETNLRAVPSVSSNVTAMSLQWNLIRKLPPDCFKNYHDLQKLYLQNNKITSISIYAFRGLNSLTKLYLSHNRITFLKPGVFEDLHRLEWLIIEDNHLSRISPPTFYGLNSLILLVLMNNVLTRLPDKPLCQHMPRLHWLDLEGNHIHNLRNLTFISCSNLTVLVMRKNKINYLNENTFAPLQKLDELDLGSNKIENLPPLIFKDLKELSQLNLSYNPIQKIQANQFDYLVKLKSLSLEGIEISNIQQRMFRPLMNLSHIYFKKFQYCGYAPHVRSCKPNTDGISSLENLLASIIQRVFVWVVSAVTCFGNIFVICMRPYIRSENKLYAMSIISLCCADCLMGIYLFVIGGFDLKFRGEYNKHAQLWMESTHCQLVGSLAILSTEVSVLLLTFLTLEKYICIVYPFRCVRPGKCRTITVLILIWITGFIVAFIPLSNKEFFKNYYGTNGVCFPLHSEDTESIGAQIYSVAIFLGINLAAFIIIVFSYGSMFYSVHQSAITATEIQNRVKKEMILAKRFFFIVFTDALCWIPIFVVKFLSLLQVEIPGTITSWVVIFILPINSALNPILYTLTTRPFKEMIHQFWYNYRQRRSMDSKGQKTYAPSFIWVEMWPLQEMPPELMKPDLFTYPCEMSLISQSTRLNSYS


Tests used:
Assay in all cases: cell-based or functional assay
human RXFP1 [1] = target: T1, human RXFP1
human RXFP1 [2] = target: T1, human RXFP1; remark: listed apart in the source
rat RXFP1 [3] = target: T2, rat RXFP1
human RXFP1 [4] = target: T1, human RXFP1; remark: listed apart in the source
rat RXFP1 [5] = target: T2, rat RXFP1; remark: listed apart in the source
human RXFP2 [6] = target: T4, human RXFP2 (human, UniProt Q8WXD0 1-754)
human RXFP1 [7] = target: T1, human RXFP1; remark: listed apart in the source
human RXFP1 [8] = target: T1, human RXFP1; remark: listed apart in the source
rat RXFP1 [9] = target: T2, rat RXFP1; remark: listed apart in the source
cynomolgus monkey RXFP1 = target: T3, cynomolgus monkey RXFP1
human RXFP1 [10] = target: T1, human RXFP1; remark: listed apart in the source
human RXFP2 [11] = target: T4, human RXFP2; remark: listed apart in the source
human RXFP1 [12] = target: T1, human RXFP1; remark: listed apart in the source

T4 sequence (Q8WXD0 whole entry): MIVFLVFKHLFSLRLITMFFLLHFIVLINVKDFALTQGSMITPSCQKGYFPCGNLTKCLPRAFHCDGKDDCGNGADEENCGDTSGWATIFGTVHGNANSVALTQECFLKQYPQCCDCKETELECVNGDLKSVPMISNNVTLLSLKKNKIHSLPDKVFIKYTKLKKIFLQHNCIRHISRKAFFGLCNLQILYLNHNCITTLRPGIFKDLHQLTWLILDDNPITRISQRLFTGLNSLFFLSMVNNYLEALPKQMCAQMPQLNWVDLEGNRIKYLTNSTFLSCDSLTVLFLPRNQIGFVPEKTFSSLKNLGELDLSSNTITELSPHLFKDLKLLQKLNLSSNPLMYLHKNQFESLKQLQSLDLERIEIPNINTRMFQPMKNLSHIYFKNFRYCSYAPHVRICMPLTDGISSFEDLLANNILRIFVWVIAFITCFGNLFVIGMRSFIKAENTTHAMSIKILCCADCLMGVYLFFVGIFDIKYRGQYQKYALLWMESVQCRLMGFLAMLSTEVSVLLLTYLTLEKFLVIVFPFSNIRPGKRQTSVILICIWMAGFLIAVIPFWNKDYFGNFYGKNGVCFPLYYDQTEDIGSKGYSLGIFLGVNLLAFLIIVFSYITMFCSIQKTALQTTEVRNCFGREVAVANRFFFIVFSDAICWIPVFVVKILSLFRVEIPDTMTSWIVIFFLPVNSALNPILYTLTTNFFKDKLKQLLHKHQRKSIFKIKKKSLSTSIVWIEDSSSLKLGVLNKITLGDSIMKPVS

Row | Binder | Potency (cAMP, transient hRXFP1 in HEK293) (human RXFP1 [1]) [pM] | THP1 (endogenous RXFP1) cAMP EC50 (human RXFP1 [2]) [pM] | Transient HEK293 hRXFP1 cAMP EC50 (human RXFP1 [2]) [pM] | Transient HEK293 rRXFP1 cAMP EC50 (rat RXFP1 [3]) [pM] | EC50 for cAMP generation, recombinant human RXFP1 assay (average) (human RXFP1 [4]) [pM] | EC50 for cAMP generation, recombinant rat RXFP1 assay (average) (rat RXFP1 [5]) [pM] | fold loss of cAMP potency on human RXFP2 against human RXFP1 (CHO-K1, stable) (human RXFP2 [6]) [fold] | Potency (cAMP, transient hRXFP1 in HEK293) (human RXFP1 [7]) [pM] | cAMP response EC50, human RXFP1 transient in HEK293 (human RXFP1 [8]) | cAMP response EC50, rat RXFP1 transient in HEK293 (rat RXFP1 [9]) | cAMP response EC50, cynomolgus monkey RXFP1 transient in HEK293 (cynomolgus monkey RXFP1) | cAMP response EC50, THP-1 (endogenous RXFP1) (human RXFP1 [10]) | cAMP response EC50, human RXFP1 stable in CHO-K1 (human RXFP1 [10]) | cAMP response EC50, human RXFP2 stable in CHO-K1 (human RXFP2 [11]) | EC50, cAMP response in RXFP1 transfected HEK293 cells (human RXFP1 [12]) [pM] | pEC50, cAMP response in RXFP1 transfected HEK293 cells (human RXFP1 [12])
1 | SEQ ID NO: 496 (Fc fusion) DKTHTCPPCPAPEAAGGPSVFLFPPKPKDTLMISRTPEVTCVVVDVSHEDPEVKFNWYVDGVEVHNAKTKPREEQYNSTYRVVSVLTVLHQDWLNGKEYKCKVSNKALAAPIEKTISKAKGQPREPQVYTLPPSRDELTKNQVSLTCLVKGFYPSDIAVEWESNGQPENNYKTTPPVLDSDGSFFLYSKLTVDKSRWQQGNVFSCSVLHEALHSHYTQKSLSLSPGKGGSDSWKEEVIKLCGRELVRAQIAICGKSTASDAAGANANAGARQLYSALANKCCHVGCTKRSLARFC | 200 | 2000 | 190 | 1150 | 200 | 1000 | – | – | – | – | – | – | – | – | – | –
2 | SEQ ID NO: 87 (Fc fusion) DKTHTCPPCPAPEAAGGPSVFLFPPKPKDTLMISRTPEVTCVVVDVSHEDPEVKFNWYVDGVEVHNAKTKPREEQYNSTYRVVSVLTVLHQDWLNGKEYKCKVSNKALAAPIEKTISKAKGQPREPQVYTLPPSRDELTKNQVSLTCLVKGFYPSDIAVEWESNGQPENNYKTTPPVLDSDGSFFLYSKLTVDKSRWQQGNVFSCSVLHEALHSHYTQKSLSLSPGKGGSDSWQEEVIKLCGRELVRAQIAICGKSTASDAAGAEAEAGARQLYSALANKCCHVGCTKRSLAQFC | 5200 | 25000 | 8700 | 10300 | 10000 | 35000 | ~100 | 8500 | 10 nM and 800 ng/mL | 30 nM and 2000 ng/mL | 10 nM and 800 ng/mL | 10 nM and 900 ng/mL | 40 nM and 2000 ng/mL | > 2 µM and > 1e+06 ng/mL | – | –
3 | Wild-type human relaxin-2 (ligand) chain 1: DSWMEEVIKLCGRELVRAQIAICGMSTWS chain 2: QLYSALANKCCHVGCTKRSLARFC | 100 | 200 | 39 | 122 | 40 | 100 | – | – | 0.05 nM and 0.3 ng/mL | 0.1 nM and 0.6 ng/mL | 0.04 nM and 0.2 ng/mL | 0.07 nM and 0.4 ng/mL | 0.2 nM and 1 ng/mL | 10 nM and 90 ng/mL | 42 | 10.4
